Source: publication PMC3775653 (Journal of the American Chemical Society, 2013)

Molecular target: the molecule itself
Test: AUC

B1: AmpDh2 (zinc protease of Pseudomonas aeruginosa), recombinant, without the 17-amino-acid N-terminal membrane anchor (enzyme)
chain: SSGPRLNTDYTSANQDSRVQFIVLHYTSTDLPHSLGILTHGGVSAHYLIGDDEPATVYRLVDENRRAWHAGVSEWQGRTWLNATSIGIEIVNQGYRDTPQGRVWYPFSEAQIQALIPLLKDIAKRHGITPDRIIGHSDIAPGRKVDPGPLFPWKRLADAGLVPWPKPGELARRLAELNGQLPDVRWFQQQLARHGYLVPQTGELEKDTRDVIGAFQMKYRPARFDGEPDLETAALLLAVPTS
  stoichiometry N: 2
